# Experimental data: paper PMC11605949
# Target: HER2 (human, UniProt P04626 23-652)
# Assay: SPR
binder,measurement,value
"HER2 aptamer (ssDNA, 5'-SH-(CH2)6) DNA: AACCGCCCAAATCCCTAAGAGTCTGCACTTGTCATTTTGTATATGTATTTGGTTTTTGGCTCTCACAGACACACTACACACGCACA",binding result,binds
